The values below come from publication PMC5492851.

Experiment [1] has as its target cellular microtubules (polymerised tubulin) (human (endogenous in HeLa)) (UniProt P68363).
The target is the same in experiment [2]. Nature of the experiment: FRAP; live untreated reporter cells, 37°C, 5% CO2; EYFP bleached in a circular ROI of 2 μm radius in the cytoplasm; recovery fitted with two exponentials (A1 diffusing phase, A2 MT-bound phase).
Experiment [3] shares this target. The source holds these as a separate data set.
The target is the same in experiment [4]. The experiment in a line: FRAP; as a1, cells treated with 1 μM Nocodazole (30 min before and during FRAP) to disassemble microtubules.

Sequence of UniProt P68363 (P68363 whole entry, chain 1 of 2): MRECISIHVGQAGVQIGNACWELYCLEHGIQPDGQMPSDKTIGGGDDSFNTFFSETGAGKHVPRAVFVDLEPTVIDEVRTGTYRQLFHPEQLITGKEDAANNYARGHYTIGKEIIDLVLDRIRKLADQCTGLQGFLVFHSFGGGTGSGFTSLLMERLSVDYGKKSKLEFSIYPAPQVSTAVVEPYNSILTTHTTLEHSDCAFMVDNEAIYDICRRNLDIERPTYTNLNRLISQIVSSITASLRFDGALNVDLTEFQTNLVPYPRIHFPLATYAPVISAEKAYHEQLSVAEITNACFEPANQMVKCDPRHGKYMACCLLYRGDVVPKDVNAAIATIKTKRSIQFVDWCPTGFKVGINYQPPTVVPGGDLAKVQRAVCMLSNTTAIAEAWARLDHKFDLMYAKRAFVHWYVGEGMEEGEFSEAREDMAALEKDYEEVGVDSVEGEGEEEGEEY
Sequence of UniProt P68363 (P07437 whole entry, chain 2 of 2, further chain): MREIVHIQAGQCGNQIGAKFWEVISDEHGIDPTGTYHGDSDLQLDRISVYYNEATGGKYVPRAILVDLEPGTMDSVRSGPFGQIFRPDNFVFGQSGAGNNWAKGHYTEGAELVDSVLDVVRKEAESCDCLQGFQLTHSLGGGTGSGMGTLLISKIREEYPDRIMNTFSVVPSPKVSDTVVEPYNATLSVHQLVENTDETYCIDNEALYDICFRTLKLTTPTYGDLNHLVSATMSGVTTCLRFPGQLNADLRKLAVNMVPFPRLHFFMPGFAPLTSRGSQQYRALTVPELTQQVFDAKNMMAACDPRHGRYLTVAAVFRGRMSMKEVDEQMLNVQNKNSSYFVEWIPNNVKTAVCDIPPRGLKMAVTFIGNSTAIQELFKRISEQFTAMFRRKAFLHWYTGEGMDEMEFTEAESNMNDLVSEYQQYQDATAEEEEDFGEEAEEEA

“Conformational Sensitive Tau sensor (ECFP-Tau-EYFP, full length human Tau-D, 0N4R) (from UniProt P10636-6 1-383) (natural protein)” returned an NFRET of CST (intramolecular, ECFP to EYFP) along MTs in untreated cells in experiment [1] of 14.5. In experiment [2], this substance had a fraction of the mobile molecules in the MT-bound phase (A2) of 72% and a time constant of fluorescence recovery of the MT-bound phase (τ2) of 35.2 s. Moreover, the NFRET of CST during treatment with 1 μM nocodazole (time course; at 10 min) in experiment [3] came out at 50%. This substance also yielded a fraction of the mobile molecules in the MT-bound phase (A2), with Nocodazole in experiment [4] of 47%.
